From patent EP4796562A1 (Shanghai Simnova Biotechnology Co., Ltd., dated 2026) come the findings set out here.

T1: DLL3 endogenously expressed on SHP77 cells (human, UniProt Q9NYJ7 27-618)
T1 construct: whole, on cells; also called human DLL3 on SHP-77
T1 sequence (looked up): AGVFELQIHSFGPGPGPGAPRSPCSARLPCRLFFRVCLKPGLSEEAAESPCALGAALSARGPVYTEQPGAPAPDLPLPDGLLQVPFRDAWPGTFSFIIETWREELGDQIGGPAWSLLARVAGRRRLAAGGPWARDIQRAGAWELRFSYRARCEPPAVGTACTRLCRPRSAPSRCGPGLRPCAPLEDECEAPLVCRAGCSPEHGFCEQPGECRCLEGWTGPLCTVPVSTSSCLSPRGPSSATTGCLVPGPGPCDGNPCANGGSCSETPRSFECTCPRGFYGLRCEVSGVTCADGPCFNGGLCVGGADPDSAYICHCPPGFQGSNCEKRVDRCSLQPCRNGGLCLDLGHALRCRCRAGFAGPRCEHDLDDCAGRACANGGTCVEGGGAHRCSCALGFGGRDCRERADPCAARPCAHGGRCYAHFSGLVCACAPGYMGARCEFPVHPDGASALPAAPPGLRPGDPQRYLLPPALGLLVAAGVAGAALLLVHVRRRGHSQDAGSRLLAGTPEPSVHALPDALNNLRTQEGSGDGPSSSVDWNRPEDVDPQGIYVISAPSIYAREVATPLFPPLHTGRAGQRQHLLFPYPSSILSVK

B1: DLL3-scFv-1 (scFv)
scFv: DIVMTQSQKFMSTSVGDRVSITCKASQNVGTAVAWYQQKPGQSPKLLIFSASIRYTGVPDRFTGSGSGTDFTLTISNMQSEDLADYFCQQYSSSPYTFGGGTKLEIKGGGGSGGGGSGGGGSEVQLQQSGPVLVKPGASVKMSCKASGYTFTDYYMNWVKRSHGKSLEWIGIINPYNGGTSYNQKFRGKATLTVDKSSNTAYMELNSLTSEDSAVYYCSRYDYDYDVEGAMDYWGQGTSVTVSS
notes: Murine anti-DLL3 clone; also called DLL3 chimeric antibody DLL3-scFv-1
B2: DLL3-scFv-3 (scFv)
scFv: DIVLTQSPASLAVSLGQRATISCRASKSVSTSGFSYMHWYQQKPGQPPKLLIYLASNLESGVPARFSGSGSGTDFTLNIHPVEEEDAATYYCQHSRELPFTFGSGTKLEIKGGGGSGGGGSGGGGSQVQLQQSGAELVKPGASVRISCKASGYAFSNYWINWVKQRPGKGLEWIGQINPGDGDTIYNGKFKGKATLTADKSSSTAYMQLSSLTSEDSAVYFCEREGRNYGDFAYWGQGTTLTVSS
notes: Murine anti-DLL3 clone; also called DLL3 chimeric antibody DLL3-scFv-3
B3: DLL3-scFv-2 (scFv)
scFv: DIVMTQSPATLSVTPGDRVSLSCRASQTISDYLHWYQQRSHESPRLLIKYASQSISGIPSRFSGSGSGSDFTLSINSVEPEDVGVYYCQNGHSFPLTFGAGTKLELKGGGGSGGGGSGGGGSEVQLQQSGTVLARPGASVKMSCKTSGYTFTSYWMHWVKQSPGQGLEWIGTIYPGNSDTRYNQKFKDKAYVTAVTSASTAYMELSSLTNEESAVYYCTRSYDYGDLDYWGQGTTLTVSS
notes: Murine anti-DLL3 clone; also called DLL3 chimeric antibody DLL3-scFv-2

In this assay the target is T1, DLL3 endogenously expressed on SHP77 …. Kind of assay: flow cytometry (FACS) on SHP77 cells. For orientation: In flow cytometry, cells or beads pass a laser one at a time.
On to B1, for which the binding result is recorded as “binds”.

Turning to B2, the binding result is “binds”.

As for B3, the binding result is “binds”.
